Experimental data taken from paper PMC5494296.
Values joined by “and” are separate entries in the source; they are usually repeats but may differ in a detail not shown here. Equal values may be shown once. One block for each substance: values may come before it.

Legend:
Assay in all cases: SEC; size-exclusion chromatography of the tag-free proteins after cleavage of the MBP fusion proteins with factor Xa; self-association (oligomeric state); SEC data not shown
[1] = biological target: ΔN102/ΔC24-Y138K human phenylalanine hydroxylase catalytic domain (human) (UniProt P00439)
[2] = biological target: Y138K full-length human phenylalanine hydroxylase (human) (UniProt P00439)
[3] = biological target: ΔN102/ΔC24-Y138E human phenylalanine hydroxylase catalytic domain (human) (UniProt P00439)
[4] = biological target: Y138A full-length human phenylalanine hydroxylase (human) (UniProt P00439)
[5] = biological target: Y138F full-length human phenylalanine hydroxylase (human) (UniProt P00439)
[6] = biological target: wild-type human phenylalanine hydroxylase, full-length (wt-hPAH) (human) (UniProt P00439)
[7] = biological target: ΔN102/ΔC24-Y138A human phenylalanine hydroxylase catalytic domain (human) (UniProt P00439)
[8] = biological target: ΔN102/ΔC24-Y138F human phenylalanine hydroxylase catalytic domain (human) (UniProt P00439)
[9] = biological target: double truncated form ΔN102/ΔC24-hPAH (catalytic domain of human phenylalanine hydroxylase) (human) (UniProt P00439)
[10] = biological target: Y138E full-length human phenylalanine hydroxylase (human) (UniProt P00439)

Substance: Y138K full-length human phenylalanine hydroxylase (from UniProt P00439 1-452) (enzyme)
stoichiometry N [2]: 2 and 4

Substance: ΔN102/ΔC24-Y138E human phenylalanine hydroxylase catalytic domain (from UniProt P00439 103-428) (domain or fragment)
stoichiometry N [3]: 2

Substance: wild-type human phenylalanine hydroxylase, full-length (wt-hPAH) (from UniProt P00439 1-452) (enzyme)
stoichiometry N [6]: 4 and 2

Substance: ΔN102/ΔC24-Y138F human phenylalanine hydroxylase catalytic domain (from UniProt P00439 103-428) (domain or fragment)
stoichiometry N [8]: 2

Substance: double truncated form ΔN102/ΔC24-hPAH (catalytic domain of human phenylalanine hydroxylase) (from UniProt P00439 103-428) (domain or fragment)
stoichiometry N [9]: 2

Substance: Y138E full-length human phenylalanine hydroxylase (from UniProt P00439 1-452) (enzyme)
stoichiometry N [10]: 4 and 2

Results, then the substance that gave them:

stoichiometry N [1]: 2
Substance: ΔN102/ΔC24-Y138K human phenylalanine hydroxylase catalytic domain (from UniProt P00439 103-428) (domain or fragment)

stoichiometry N [4]: 4 and 2
Substance: Y138A full-length human phenylalanine hydroxylase (from UniProt P00439 1-452) (enzyme)

stoichiometry N [5]: 4 and 2
Substance: Y138F full-length human phenylalanine hydroxylase (from UniProt P00439 1-452) (enzyme)

stoichiometry N [7]: 2
Substance: ΔN102/ΔC24-Y138A human phenylalanine hydroxylase catalytic domain (from UniProt P00439 103-428) (domain or fragment)
